# Reference: IntAct's records for PubMed 34606829
# B1: ALK tyrosine kinase receptor (Homo sapiens), Q9UM73 (parent)
# chain: MGAIGLLWLLPLLLSTAAVGSGMGTGQRAGSPAAGPPLQPREPLSYSRLQRKSLAVDFVVPSLFRVYARDLLLPPSSSELKAGRPEARGSLALDCAPLLRLLGPAPGVSWTAGSPAPAEARTLSRVLKGGSVRKLRRAKQLVLELGEEAILEGCVGPPGEAAVGLLQFNLSELFSWWIRQGEGRLRIRLMPEKKASEVGREGRLSAAIRASQPRLLFQIFGTGHSSLESPTNMPSPSPDYFTWNLTWIMKDSFPFLSHRSRYGLECSFDFPCELEYSPPLHDLRNQSWSWRRIPSEEASQMDLLDGPGAERSKEMPRGSFLLLNTSADSKHTILSPWMRSSSEHCTLAVSVHRHLQPSGRYIAQLLPHNEAAREILLMPTPGKHGWTVLQGRIGRPDNPFRVALEYISSGNRSLSAVDFFALKNCSEGTSPGSKMALQSSFTCWNGTVLQLGQACDFHQDCAQGEDESQMCRKLPVGFYCNFEDGFCGWTQGTLSPHTPQWQVRTLKDARFQDHQDHALLLSTTDVPASESATVTSATFPAPIKSSPCELRMSWLIRGVLRGNVSLVLVENKTGKEQGRMVWHVAAYEGLSLWQWMVLPLLDVSDRFWLQMVAWWGQGSRAIVAFDNISISLDCYLTISGEDKILQNTAPKSRNLFERNPNKELKPGENSPRQTPIFDPTVHWLFTTCGASGPHGPTQAQCNNAYQNSNLSVEVGSEGPLKGIQIWKVPATDTYSISGYGAAGGKGGKNTMMRSHGVSVLGIFNLEKDDMLYILVGQQGEDACPSTNQLIQKVCIGENNVIEEEIRVNRSVHEWAGGGGGGGGATYVFKMKDGVPVPLIIAAGGGGRAYGAKTDTFHPERLENNSSVLGLNGNSGAAGGGGGWNDNTSLLWAGKSLQEGATGGHSCPQAMKKWGWETRGGFGGGGGGCSSGGGGGGYIGGNAASNNDPEMDGEDGVSFISPLGILYTPALKVMEGHGEVNIKHYLNCSHCEVDECHMDPESHKVICFCDHGTVLAEDGVSCIVSPTPEPHLPLSLILSVVTSALVAALVLAFSGIMIVYRRKHQELQAMQMELQSPEYKLSKLRTSTIMTDYNPNYCFAGKTSSISDLKEVPRKNITLIRGLGHGAFGEVYEGQVSGMPNDPSPLQVAVKTLPEVCSEQDELDFLMEALIISKFNHQNIVRCIGVSLQSLPRFILLELMAGGDLKSFLRETRPRPSQPSSLAMLDLLHVARDIACGCQYLEENHFIHRDIAARNCLLTCPGPGRVAKIGDFGMARDIYRASYYRKGGCAMLPVKWMPPEAFMEGIFTSKTDTWSFGVLLWEIFSLGYMPYPSKSNQEVLEFVTSGGRMDPPKNCPGPVYRIMTQCWQHQPEDRPNFAIILERIEYCTQDPDVINTALPIEYGPLVEEEEKVPVRPKDPEGVPPLLVSQQAKREEERSPAAPPPLPTTSSGKAAKKPTAAEISVRVPRGPAVEGGHVNMAFSQSNPPSELHKVHGSRNKPTSLWNPTYGSWFTEKPTKKNNPIAKKEPHDRGNLGLEGSCTVPPNVATGRLPGASLLLEPSSLTANMKEVPLFRLRHFPCGNVNYGYQQQGLPLEAATAPGAGHYEDTILKSKNSMNQPGP
# B2: ALK tyrosine kinase receptor (Homo sapiens), Q9UM73 (parent)
# chain: B1 chain
# partner: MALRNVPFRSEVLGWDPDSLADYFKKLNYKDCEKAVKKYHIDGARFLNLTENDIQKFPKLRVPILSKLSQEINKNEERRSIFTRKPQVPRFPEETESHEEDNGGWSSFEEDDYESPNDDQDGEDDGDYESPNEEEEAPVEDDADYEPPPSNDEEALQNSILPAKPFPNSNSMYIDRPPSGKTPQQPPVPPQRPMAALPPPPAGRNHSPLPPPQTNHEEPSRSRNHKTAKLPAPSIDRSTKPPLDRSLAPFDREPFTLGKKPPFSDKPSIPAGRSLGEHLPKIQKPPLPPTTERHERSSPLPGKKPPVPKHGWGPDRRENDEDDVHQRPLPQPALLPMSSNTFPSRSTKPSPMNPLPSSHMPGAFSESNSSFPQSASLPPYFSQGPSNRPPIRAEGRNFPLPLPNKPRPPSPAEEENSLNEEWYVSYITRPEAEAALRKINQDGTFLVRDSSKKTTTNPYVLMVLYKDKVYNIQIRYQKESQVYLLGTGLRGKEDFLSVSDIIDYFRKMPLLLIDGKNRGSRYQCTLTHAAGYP
# B3: ALK tyrosine kinase receptor (Homo sapiens), Q9UM73 (parent)
# chain: B1 chain
# partner: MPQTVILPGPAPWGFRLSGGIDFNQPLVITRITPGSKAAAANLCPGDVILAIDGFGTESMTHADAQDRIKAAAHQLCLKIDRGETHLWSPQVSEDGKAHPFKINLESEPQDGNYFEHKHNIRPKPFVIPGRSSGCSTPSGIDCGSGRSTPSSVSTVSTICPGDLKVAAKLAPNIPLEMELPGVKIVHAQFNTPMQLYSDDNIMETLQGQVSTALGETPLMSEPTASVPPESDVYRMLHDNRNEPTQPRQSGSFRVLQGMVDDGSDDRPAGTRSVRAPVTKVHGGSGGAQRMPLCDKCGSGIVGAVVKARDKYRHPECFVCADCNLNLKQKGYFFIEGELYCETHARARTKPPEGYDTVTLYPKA
# B4: ALK tyrosine kinase receptor (Homo sapiens), Q9UM73 (parent)
# chain: B1 chain
# partner: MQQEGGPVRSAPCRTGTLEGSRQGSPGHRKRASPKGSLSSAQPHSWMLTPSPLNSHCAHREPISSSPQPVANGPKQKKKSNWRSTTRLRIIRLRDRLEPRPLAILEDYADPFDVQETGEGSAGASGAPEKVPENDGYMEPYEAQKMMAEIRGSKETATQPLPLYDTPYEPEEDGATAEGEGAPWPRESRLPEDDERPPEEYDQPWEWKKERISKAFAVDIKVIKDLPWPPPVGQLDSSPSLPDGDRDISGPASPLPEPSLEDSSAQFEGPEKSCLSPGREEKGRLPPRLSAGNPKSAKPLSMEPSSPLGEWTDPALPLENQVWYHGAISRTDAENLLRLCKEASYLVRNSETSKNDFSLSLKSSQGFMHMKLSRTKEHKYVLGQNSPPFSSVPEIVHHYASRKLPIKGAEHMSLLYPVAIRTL
# B5: ALK tyrosine kinase receptor (Homo sapiens), Q9UM73 (parent)
# chain: B1 chain
# partner: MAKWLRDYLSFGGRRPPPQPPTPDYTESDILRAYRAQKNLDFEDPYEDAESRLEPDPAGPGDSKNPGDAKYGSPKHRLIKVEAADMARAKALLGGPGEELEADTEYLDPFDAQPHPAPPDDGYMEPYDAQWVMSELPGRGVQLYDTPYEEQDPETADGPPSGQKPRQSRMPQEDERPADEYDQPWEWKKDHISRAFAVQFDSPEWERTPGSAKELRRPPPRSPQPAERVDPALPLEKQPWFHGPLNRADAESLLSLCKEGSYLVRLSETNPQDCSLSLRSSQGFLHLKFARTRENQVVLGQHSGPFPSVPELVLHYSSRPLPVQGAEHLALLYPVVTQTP
# Variants of: B1
# Conditions: with abl1_human ABL1, P00519
# abl1_human ABL1, P00519, sequence (P00519 whole entry): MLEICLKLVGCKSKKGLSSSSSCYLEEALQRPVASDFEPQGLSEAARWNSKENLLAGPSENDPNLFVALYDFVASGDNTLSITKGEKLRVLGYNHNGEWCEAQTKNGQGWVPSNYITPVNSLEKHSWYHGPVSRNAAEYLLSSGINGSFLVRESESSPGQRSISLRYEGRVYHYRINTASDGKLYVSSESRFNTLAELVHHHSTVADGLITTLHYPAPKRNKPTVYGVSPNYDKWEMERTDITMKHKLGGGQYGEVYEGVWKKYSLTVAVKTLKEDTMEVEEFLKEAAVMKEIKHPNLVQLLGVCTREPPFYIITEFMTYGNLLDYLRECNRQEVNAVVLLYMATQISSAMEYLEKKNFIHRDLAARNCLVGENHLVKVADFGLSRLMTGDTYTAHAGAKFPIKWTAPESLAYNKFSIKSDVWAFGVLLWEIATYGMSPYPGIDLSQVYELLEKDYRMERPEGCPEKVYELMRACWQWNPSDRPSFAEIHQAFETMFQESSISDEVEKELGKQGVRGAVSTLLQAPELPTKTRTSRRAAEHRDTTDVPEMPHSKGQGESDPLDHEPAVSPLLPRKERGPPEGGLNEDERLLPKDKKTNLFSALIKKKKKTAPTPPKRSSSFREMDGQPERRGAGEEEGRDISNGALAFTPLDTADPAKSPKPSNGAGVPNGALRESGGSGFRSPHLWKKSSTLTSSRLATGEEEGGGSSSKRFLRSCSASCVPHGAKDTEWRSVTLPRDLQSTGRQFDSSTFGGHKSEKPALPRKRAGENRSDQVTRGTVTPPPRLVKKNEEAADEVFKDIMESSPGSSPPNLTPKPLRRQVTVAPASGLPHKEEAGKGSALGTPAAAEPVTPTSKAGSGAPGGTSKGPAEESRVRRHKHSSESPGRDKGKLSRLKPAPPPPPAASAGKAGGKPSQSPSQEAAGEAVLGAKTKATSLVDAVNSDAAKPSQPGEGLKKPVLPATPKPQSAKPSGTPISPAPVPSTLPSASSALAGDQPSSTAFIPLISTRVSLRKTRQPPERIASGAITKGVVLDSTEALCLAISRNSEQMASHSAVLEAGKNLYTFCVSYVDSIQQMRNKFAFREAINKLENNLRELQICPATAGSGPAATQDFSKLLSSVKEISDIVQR
row,Variant,effect of a mutation on the interaction
1,L1196M,increasing interaction strength
2,F1245C,increasing interaction strength

# Variants of: B1
# Conditions: with frk_human FRK
row,Variant,effect of a mutation on the interaction
1,L1196M,increasing interaction strength
2,F1245C,increasing interaction strength

# Variants of: B1
# Conditions: with sh24b_human SH2D4B
row,Variant,effect of a mutation on the interaction
1,L1196M,increasing interaction strength
2,F1245C,increasing interaction strength

# Variants of: B1
# Conditions: with srms_human SRMS
row,Variant,effect of a mutation on the interaction
1,L1196M,increasing interaction strength
2,F1245C,increasing interaction strength

# Variants of: B1
# Conditions: with sta5b_human STAT5B
row,Variant,effect of a mutation on the interaction
1,L1196M,increasing interaction strength
2,F1245C,increasing interaction strength

# Variants of: B1
# Conditions: with syk_human KARS1, Q15046
# syk_human KARS1, Q15046, sequence (Q15046 whole entry, looked up): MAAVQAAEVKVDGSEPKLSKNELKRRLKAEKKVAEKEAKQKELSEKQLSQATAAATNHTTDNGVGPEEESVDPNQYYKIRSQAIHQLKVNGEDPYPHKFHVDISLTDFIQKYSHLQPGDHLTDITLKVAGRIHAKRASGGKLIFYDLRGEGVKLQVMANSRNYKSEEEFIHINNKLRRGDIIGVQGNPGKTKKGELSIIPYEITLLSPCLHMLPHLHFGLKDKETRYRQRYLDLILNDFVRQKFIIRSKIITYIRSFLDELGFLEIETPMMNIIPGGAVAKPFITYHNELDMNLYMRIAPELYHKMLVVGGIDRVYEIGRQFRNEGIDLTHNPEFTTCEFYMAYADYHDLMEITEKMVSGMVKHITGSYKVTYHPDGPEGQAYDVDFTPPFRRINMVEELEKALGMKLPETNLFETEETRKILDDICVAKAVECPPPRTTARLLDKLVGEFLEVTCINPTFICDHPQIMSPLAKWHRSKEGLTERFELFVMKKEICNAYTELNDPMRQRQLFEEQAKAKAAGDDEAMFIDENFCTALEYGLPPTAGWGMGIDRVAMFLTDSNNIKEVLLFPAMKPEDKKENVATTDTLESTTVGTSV
row,Variant,effect of a mutation on the interaction
1,L1196M,increasing interaction strength
2,F1245C,increasing interaction strength

# Variants of: B1
# Conditions: with crk_human CRK
row,Variant,effect of a mutation on the interaction
1,L1196M,increasing interaction strength
2,F1245C,increasing interaction strength

# Variants of: B1
# Conditions: with fgr_human FGR
row,Variant,effect of a mutation on the interaction
1,L1196M,increasing interaction strength
2,F1245C,increasing interaction strength

# Variants of: B1
# Conditions: with grb14_human GRB14, Q14449
# grb14_human GRB14, Q14449, sequence (Q14449 whole entry): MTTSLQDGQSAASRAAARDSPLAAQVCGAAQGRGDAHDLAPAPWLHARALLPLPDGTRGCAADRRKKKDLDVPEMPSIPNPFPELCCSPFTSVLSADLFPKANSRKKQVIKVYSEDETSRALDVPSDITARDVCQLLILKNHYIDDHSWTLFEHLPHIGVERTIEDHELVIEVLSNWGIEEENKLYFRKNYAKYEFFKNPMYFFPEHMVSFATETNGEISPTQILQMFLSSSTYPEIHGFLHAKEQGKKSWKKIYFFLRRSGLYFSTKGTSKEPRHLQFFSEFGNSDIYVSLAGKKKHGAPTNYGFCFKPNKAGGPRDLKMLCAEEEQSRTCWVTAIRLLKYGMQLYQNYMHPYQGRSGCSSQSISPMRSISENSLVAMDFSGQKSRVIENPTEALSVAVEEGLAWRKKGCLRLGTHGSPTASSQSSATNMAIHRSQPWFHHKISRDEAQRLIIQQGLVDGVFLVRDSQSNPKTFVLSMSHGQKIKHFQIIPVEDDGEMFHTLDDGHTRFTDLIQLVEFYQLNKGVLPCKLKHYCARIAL
row,Variant,effect of a mutation on the interaction
1,L1196M,increasing interaction strength
2,F1245C,increasing interaction strength

# Variants of: B1
# Conditions: with hck_human HCK
row,Variant,effect of a mutation on the interaction
1,L1196M,increasing interaction strength
2,F1245C,increasing interaction strength

# Variants of: B1
# Conditions: with lyn_human LYN
row,Variant,effect of a mutation on the interaction
1,L1196M,increasing interaction strength
2,F1245C,increasing interaction strength

# Variants of: B1
# Conditions: with nck2_human NCK2, O43639
# nck2_human NCK2, O43639, sequence (O43639 whole entry): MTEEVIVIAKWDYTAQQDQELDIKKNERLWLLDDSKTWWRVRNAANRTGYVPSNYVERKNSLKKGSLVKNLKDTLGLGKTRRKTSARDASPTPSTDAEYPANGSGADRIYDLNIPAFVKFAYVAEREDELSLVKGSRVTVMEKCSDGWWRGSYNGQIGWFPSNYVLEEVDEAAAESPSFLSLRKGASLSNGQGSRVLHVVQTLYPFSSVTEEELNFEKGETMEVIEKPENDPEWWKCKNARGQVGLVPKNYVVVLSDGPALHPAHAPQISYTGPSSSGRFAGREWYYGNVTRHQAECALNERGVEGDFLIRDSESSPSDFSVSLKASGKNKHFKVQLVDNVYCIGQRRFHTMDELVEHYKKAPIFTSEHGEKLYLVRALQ
row,Variant,effect of a mutation on the interaction
1,L1196M,increasing interaction strength
2,F1245C,increasing interaction strength

# Variants of: B1
# Conditions: with sh2b1_human SH2B1, Q9NRF2
row,Variant,effect of a mutation on the interaction
1,L1196M,increasing interaction strength
2,F1245C,increasing interaction strength

# Variants of: B1
# Conditions: with shb_human SHB
row,Variant,effect of a mutation on the interaction
1,L1196M,increasing interaction strength
2,F1245C,increasing interaction strength

# Variants of: B1
# Conditions: with socs3_human SOCS3, O14543
# socs3_human SOCS3, O14543, sequence (O14543 whole entry): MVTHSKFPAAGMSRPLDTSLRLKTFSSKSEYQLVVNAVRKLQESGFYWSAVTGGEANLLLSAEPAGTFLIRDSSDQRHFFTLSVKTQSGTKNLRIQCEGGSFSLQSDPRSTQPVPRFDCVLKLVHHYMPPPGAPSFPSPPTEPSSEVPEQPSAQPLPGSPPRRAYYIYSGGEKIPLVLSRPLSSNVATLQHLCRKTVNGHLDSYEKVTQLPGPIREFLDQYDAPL
row,Variant,effect of a mutation on the interaction
1,L1196M,increasing interaction strength
2,F1245C,increasing interaction strength

# Variants of: B1
# Conditions: with stat2_human STAT2, P52630
# stat2_human STAT2, P52630, sequence (P52630 whole entry): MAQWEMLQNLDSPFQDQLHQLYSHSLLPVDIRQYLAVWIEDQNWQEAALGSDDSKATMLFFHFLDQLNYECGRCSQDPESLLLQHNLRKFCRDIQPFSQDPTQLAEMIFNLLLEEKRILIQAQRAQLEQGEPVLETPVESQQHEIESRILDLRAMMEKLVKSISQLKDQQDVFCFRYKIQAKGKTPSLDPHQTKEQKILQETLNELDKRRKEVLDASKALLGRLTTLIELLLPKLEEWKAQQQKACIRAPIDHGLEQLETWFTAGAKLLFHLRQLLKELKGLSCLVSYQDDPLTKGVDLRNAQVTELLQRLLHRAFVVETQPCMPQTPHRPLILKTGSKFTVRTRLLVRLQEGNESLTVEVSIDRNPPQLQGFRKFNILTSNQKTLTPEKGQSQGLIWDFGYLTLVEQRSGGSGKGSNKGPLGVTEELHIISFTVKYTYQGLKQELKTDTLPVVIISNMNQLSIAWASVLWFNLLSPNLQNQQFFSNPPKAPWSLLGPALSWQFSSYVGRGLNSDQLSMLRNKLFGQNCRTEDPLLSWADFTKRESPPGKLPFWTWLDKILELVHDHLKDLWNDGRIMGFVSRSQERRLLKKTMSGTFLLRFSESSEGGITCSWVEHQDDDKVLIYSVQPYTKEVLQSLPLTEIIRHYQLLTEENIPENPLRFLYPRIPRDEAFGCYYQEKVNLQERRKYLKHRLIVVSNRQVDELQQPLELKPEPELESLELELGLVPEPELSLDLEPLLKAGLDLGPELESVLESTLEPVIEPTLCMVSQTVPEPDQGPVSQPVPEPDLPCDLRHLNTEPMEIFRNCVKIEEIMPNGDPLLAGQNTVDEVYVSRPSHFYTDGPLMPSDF
row,Variant,effect of a mutation on the interaction
1,L1196M,increasing interaction strength
2,F1245C,increasing interaction strength

# Variants of: B1
# Conditions: with zap70_human ZAP70, P43403
# zap70_human ZAP70, P43403, sequence (P43403 whole entry): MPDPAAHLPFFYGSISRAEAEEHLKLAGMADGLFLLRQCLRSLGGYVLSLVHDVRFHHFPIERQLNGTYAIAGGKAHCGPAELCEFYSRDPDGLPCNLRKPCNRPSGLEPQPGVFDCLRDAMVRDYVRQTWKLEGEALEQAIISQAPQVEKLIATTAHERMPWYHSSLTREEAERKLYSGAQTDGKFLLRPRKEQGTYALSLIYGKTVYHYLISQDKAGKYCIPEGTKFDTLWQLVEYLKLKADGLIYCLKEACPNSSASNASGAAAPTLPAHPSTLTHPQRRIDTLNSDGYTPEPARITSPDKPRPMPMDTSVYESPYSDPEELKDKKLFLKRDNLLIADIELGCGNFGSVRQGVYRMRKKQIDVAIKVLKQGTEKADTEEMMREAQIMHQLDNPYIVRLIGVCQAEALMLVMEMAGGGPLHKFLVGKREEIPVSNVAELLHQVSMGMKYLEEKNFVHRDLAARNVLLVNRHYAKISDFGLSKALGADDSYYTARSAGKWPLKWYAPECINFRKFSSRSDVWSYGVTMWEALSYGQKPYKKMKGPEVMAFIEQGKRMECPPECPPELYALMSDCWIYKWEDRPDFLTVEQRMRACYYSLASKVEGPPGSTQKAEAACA
row,Variant,effect of a mutation on the interaction
1,L1196M,increasing interaction strength
2,F1245C,increasing interaction strength

# Variants of: B1
# Conditions: with rack1_human RACK1, P63244
row,Variant,effect of a mutation on the interaction
1,L1196M,increasing interaction strength
2,F1245C,increasing interaction strength

# Variants of: B2
# Conditions: with lcp2_human LCP2, Q13094
row,Variant,effect of a mutation on the interaction
1,F1245C,increasing interaction strength
2,I1250T,decreasing interaction strength
3,L1196M,increasing interaction strength

# Variants of: B3
# Conditions: with pdli3_human PDLIM3, Q53GG5
row,Variant,effect of a mutation on the interaction
1,F1245C,increasing interaction strength
2,I1250T,decreasing interaction strength
3,L1196M,increasing interaction strength

# Variants of: B4
# Conditions: with shf_human SHF
row,Variant,effect of a mutation on the interaction
1,F1245C,increasing interaction strength
2,I1250T,decreasing interaction strength
3,L1196M,increasing interaction strength

# Variants of: B5
# Conditions: with shd_human SHD
row,Variant,effect of a mutation on the interaction
1,I1250T,decreasing interaction strength
2,L1196M,increasing interaction strength
3,F1245C,increasing interaction strength
